Assay results taken from patent publication US20240425593A1 (SICHUAN KELUN BIOTECH BIOPHARMACEUTICAL, published 2024).
Substitutions are numbered along the chain they refer to. Names and notes keep the numbering of the source.

T1: monkey PD-1-hFc (monkey)
T1 construct: Extracellular domain of monkey PD-1 fused to an hFc tag, made in house; not shown: The hFc tag and any linker
T1 chain: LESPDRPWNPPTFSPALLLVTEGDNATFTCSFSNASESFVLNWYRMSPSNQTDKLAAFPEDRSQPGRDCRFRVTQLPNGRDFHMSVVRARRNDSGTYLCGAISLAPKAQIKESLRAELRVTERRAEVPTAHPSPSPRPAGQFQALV

B1: chimeric antibody 91D5-CH (antibody, human IgG4 S228P, kappa, V domains shown)
VH: EVQLQQSGPELVKPGASVKISCRASGYTFTDYYMNWVKESHGKSLEWIGEINPKYGDTTYNQKFKDKATLTVDKSSSTASVELRSLTSEDSAVYYCAKGIRLFDSWGQGTTVTVSS
VL: DIQLTQSPASLSASVGETVTITCRPSGNVHNYFAWYQQKQGKSPQLLVYNAKTLAEGVPSRFSGSGSGTQYSLKINSLQPEDFGTYYCHHYYTAPFTFGSGTKLEIKR
notes: Murine 91D5 variable regions fused to the IgG4 (S228P) heavy chain constant region and the human kappa constant region
B2: chimeric antibody 29C6-CH (antibody, human IgG4 S228P, kappa, V domains shown)
VH: QVQLEESGPELVKPGASVKISCKTSGYTFTEYTIYWVKQSHGKSLEWIGGINPKNGATLYNQKFKVKATLTVDKSSSTAYMELRSLTSEDSAVYYCVRDYHGNSHDSMDYWGQGTSVTVSS
VL: QIVLTQSPAIMSASPGEKVTITCSASSSVSYMHWFRQKPGTSPKLWIYYTSNLASGVPAHFSGSGSGTSYSLTISRMEAEDAATYYCQQRSDYPPTFGGGTKLEIKR
notes: Murine 29C6 variable regions fused to the IgG4 (S228P) heavy chain constant region and the human kappa constant region
B3: chimeric antibody 14A4-CH (antibody, human IgG4 S228P, kappa, V domains shown)
VH: EVQLVESGGGLVKPGGSLKLSCAASGFTFSSYGMSWGRQTPEKRLEWVATISGGGSDTYYPDSVKGRFTISRDNVKNNLYLQMSSLRSEDTALYYCARQYGITWFAYWGQGTLVTVSA
VL: not shown
notes: Murine 14A4 variable regions fused to the IgG4 (S228P) heavy chain constant region and the human kappa constant region
B4: chimeric antibody 35E6-CH (antibody, human IgG4 S228P, kappa)
heavy: not shown
light: CIVLTQSPASLAVSLGQSVTISCRASESVEYYGTNLMQWYQQKPGQPPKLLIYFASNVASGVPARFSGSGSGTDFSLNIHPVEGDDIARYFCQQSKKVPSTFGGGTKLEIKRTVAAPSVFIFPPSDEQLKSGTASVVCLLNNFYPREAKVQWKVDNALQSGNSQESVTEQDSKDSTYSLSSTLTLSKADYEKHKVYACEVTHQGLSSPVTKSFNRGEC
notes: Murine 35E6 variable regions fused to the IgG4 (S228P) heavy chain constant region and the human kappa constant region
B5: humanized antibody 91D5-HZ1 (antibody, human IgG4 S228P, kappa, V domains shown)
VH: EVQLVQSGAEVKKPGASVKVSCKASGYTFTDYYMNWVREAPGQGLEWMGEINPKYGDTTYAQKLQGRVTLTVDKSTSTAYMELSSLRSDDTAVYYCAKGIRLFDSWGQGTLVTVSS
VL: DIQLTQSPSSLSASVGDRVTITCRPSGNVHNYFAWYQQKPGKSPKLLVYNAKTLAEGVPSRFSGSGSGTDYTLTISSLQPEDFATYYCHHYYTAPFTFGGGTKVEIKR
B6: humanized antibody 91D5-HZ2 (antibody, human IgG4 S228P, kappa)
heavy: not shown
light: DIQLTQSPSSLSASVGDRVTITCRPSGNVHNYFAWYQQKPGKSPKLLVYNAKTLAEGVPSRFSGSGSGTDYTLTISSLQPEDFATYYCHHYYTAPFTFGGGTKVEIKRTVAAPSVFIFPPSDEQLKSGTASVVCLLNNFYPREAKVQWKVDNALQSGNSQESVTEQDSKDSTYSLSSTLTLSKADYEKHKVYACEVTHQGLSSPVTKSFNRGEC
B7: humanized antibody 29C6-HZ1 (antibody, human IgG4 S228P, kappa, V domains shown)
VH: QVQLVQSGAEVKKPGASVKVSCKTSGYTFTEYTIYWVRQAPGQGLEWIGGINPKNGATLYNQKFQGRVTLTVDKSTSTAYMELRSLRSDDTAVYYCVRDYHGNSHDSMDYWGQGTLVTVSS
VL: EIVLTQSPATLSLSPGERATLSCSASSSVSYMHWFQQKPGQAPRLWIYYTSNLASGVPARFSGSGSGTDYTLTISSLEPEDFAVYYCQQRSDYPPTFGGGTKVEIKR
B8: humanized antibody 29C6-HZ2 (antibody, human IgG4 S228P, kappa, V domains shown)
VH: B7 VH with A9V, Q65K, G66V, V68A, S77T, R84K, R87Q, S88F, L116T
VL: B7 VL with W46L
B9: humanized antibody 35E6-HZ1 (antibody, human IgG4 S228P, kappa)
heavy: not shown
light: EIVLTQSPATLSLSPGERATLSCRASESVEYYGTNLMQWYQQKPGQPPRLLIYFASNVASGIPARFSGSGSGTDFTLTISSLEPEDFAVYFCQQSKKVPSTFGQGTKVEIKRTVAAPSVFIFPPSDEQLKSGTASVVCLLNNFYPREAKVQWKVDNALQSGNSQESVTEQDSKDSTYSLSSTLTLSKADYEKHKVYACEVTHQGLSSPVTKSFNRGEC

Molecular target: T1, monkey PD-1-hFc
Assay: ELISA, coated monkey PD-1-hFc
Description: (§1) The specific experimental steps were as follows: human PD-1-hFc and monkey PD-1-hFc antigens were diluted to 1 μg/mL with CBS solution, then coated on a 96-well ELISA plate (purchased from Guangzhou Jiete Bio) at 4° C. overnight. […] After washing, a goat anti-human secondary antibody (FC) labeled with horseradish peroxidase diluted in phosphate buffer (PBS) containing 2% BSA in a ratio of 1:15000 was added, followed by incubating at 37° C. for 1 hour. After washing, the TMB chromogen solution was used for developing, and the absorbance value was read using a microplate reader at 450 nm, and the data were imported into Graphprism to calculate EC₅₀ values.

| EC50 | Binder |
| --- | --- |
| 0.235 nM | B1 |
| 0.171 nM | B2 |
| 0.171 nM | B3 |
| 0.198 nM | B4 |

molecular target: T2, human PD-1-hFc (human, UniProt Q15116 25-170); assay: competitive ELISA, coated PD-1-hFc, competitor PDL2-mFc
T2 construct: extracellular domain; Extracellular domain of human PD-1 fused to an hFc tag, made in house; not shown: hFc tag
Description: (§2) The specific experimental steps were as follows: human PD-1-hFc was diluted to 1 μg/mL with CBS solution, coated on a 96-well ELISA plate (purchased from Guangzhou Jiete Bio) at 4° C. overnight. After washing, 100 μL of phosphate buffer (PBS) containing 2% BSA was used for blocking at 37° C. for 1 hour. […] After washing, a goat anti-mouse secondary antibody labeled with HRP diluted in phosphate buffer (PBS) containing 2% BSA in a ratio of 1:15000 was added, followed by incubating at room temperature for 1 hour. After washing, the TMB chromogen solution was used for developing, and the absorbance value was read using a microplate reader at 450 nm, and the data were imported into Graphprism to calculate ICs values.

| IC50 | Binder |
| --- | --- |
| 1.08 nM | B1 |
| 1.31 nM | B2 |
| 1.25 nM | B5 |
| 1.22 nM | B6 |
| 3.63 nM | B7 |
| 0.95 nM | B8 |
| 1.11 nM | B4 |
| 1.15 nM | B9 |

molecular target: T3, full-length human PD-1 on CHO-hPD-1 cells (human, UniProt Q15116 25-288); assay: competitive FACS on CHO-hPD-1 cells, competitor PD-L1-mFc-Bio
T3 construct: whole, on cells; also called PD-1 on the cell membrane surface of CHO-hPD-1
Description: The data were imported into Graphprism to calculate IC₅₀ values.

| IC50 | Binder |
| --- | --- |
| 0.96 ng/mL | B1 |
| 1.7 ng/mL | B2 |
| 0.75 ng/mL | B3 |
| 1.58 ng/mL | B4 |

molecular target: T4, PD-1 on Jurkat-PD-1-NFAT cells (UniProt Q15116 25-288, limits assumed); assay: cell-based or functional assay

| EC50 from the PD-1/PD-L1 luciferase reporter system | Binder |
| --- | --- |
| 4.47 nM | B6 |
| 5.74 nM | B8 |
| 3.63 nM | B9 |

molecular target: T2, human PD-1-hFc; assay: competitive ELISA, coated human PD-1-hFc, competitor hPD-L2-mFc
Description: as §2

| IC50 | Binder |
| --- | --- |
| 1.39 nM | B1 |
| 1.97 nM | B2 |
| 1.17 nM | B3 |
| 1.78 nM | B4 |

molecular target: T2, human PD-1-hFc; assay: competitive ELISA, coated human PD-1-hFc, competitor hPD-L1-mFc
Description: as §2

| IC50 | Binder |
| --- | --- |
| 1.23 nM | B1 |
| 1.73 nM | B2 |
| 1.12 nM | B3 |
| 1.6 nM | B4 |

molecular target: T5, human PD-1-His (human, UniProt Q15116 25-170); assay: BLI (Octet ForteBio), human PD-1-His
T5 construct: extracellular domain; not shown: His tag

| fold stronger affinity than the control antibody 1 | Binder |
| --- | --- |
| 11.7 times | B1 |
| 7.3 times | B2 |
| 4.3 times | B3 |
| 15.4 times | B4 |

molecular target: T5, human PD-1-His; assay: BLI (Octet ForteBio), antibody on ProA biosensor, PD-1-His in solution

| Kd | koff | kon | Binder |
| --- | --- | --- | --- |
| 0.547 nM | 0.000177 s⁻¹ | 324000 M⁻¹ s⁻¹ | B1 |
| 0.516 nM | 0.000166 s⁻¹ | 322000 M⁻¹ s⁻¹ | B2 |
| 1.89 nM | 0.00053 s⁻¹ | 281000 M⁻¹ s⁻¹ | B5 |
| 1.5 nM | 0.000472 s⁻¹ | 315000 M⁻¹ s⁻¹ | B6 |
| 1.65 nM | 0.000454 s⁻¹ | 275000 M⁻¹ s⁻¹ | B8 |
| 1.31 nM | 0.000517 s⁻¹ | 395000 M⁻¹ s⁻¹ | B9 |

molecular target: T2, human PD-1-hFc; assay: competitive ELISA, coated PD-1-hFc, competitor PDL1-mFc
Description: as §2

| IC50 | Binder |
| --- | --- |
| 0.96 nM | B1 |
| 1.15 nM | B2 |
| 1.19 nM | B5 |
| 1.13 nM | B6 |
| 3.11 nM | B7 |
| 0.88 nM | B8 |
| 0.88 nM | B4 |
| 0.94 nM | B9 |

molecular target: T5, human PD-1-His; assay: ELISA, coated human PD-1-his
Description: as §1, with “To verify the affinity of the humanized PD-1 antibody to PD-1-His antigen, ELISA was employed. The” for “The”, “PD-1-his was” for “PD-1-hFc and monkey PD-1-hFc antigens were”, “anti-mouse” for “anti-human”, “nm. The” for “nm, and the”

| EC50 | Binder |
| --- | --- |
| 0.29 nM | B1 |
| 0.17 nM | B2 |
| 0.39 nM | B5 |
| 0.42 nM | B6 |
| 0.42 nM | B7 |
| 0.16 nM | B8 |
| 0.2 nM | B4 |
| 0.3 nM | B9 |

molecular target: T6, human PD-1-ECD-mFc (human; mouse, UniProt Q15116 25-170); assay: ELISA, coated antigen (column head: Human PD-1-mFc; text of Example 4.2: human PD-1-hFc)
T6 construct: extracellular domain; Made in HEK293F cells; also called human PD-1-mFc; PD-1-mFc; not shown: mouse Fc (mFc) amino acids, AB097847.1
Description: as §1

| EC50 | Binder |
| --- | --- |
| 0.09 nM | B1 |
| 0.115 nM | B2 |
| 0.082 nM | B3 |
| 0.103 nM | B4 |

molecular target: T4, PD-1 on Jurkat-PD-1-NFAT cells; assay: cell-based or functional assay; remark: another data set of the same source

| EC50 (nM), cell activity for blocking PD-1/PD-L1 binding, luciferase reporter gene assay | Binder |
| --- | --- |
| 4.41 nM | B1 |
| 10.7 nM | B2 |
| 8.4 nM | B3 |
| 5.53 nM | B4 |

molecular target: T5, human PD-1-His; assay: BLI (Octet ForteBio), antibody on ProA biosensor, human PD-1-His in solution

| Kd | koff | kon | Binder |
| --- | --- | --- | --- |
| 0.549 nM | 0.000143 s⁻¹ | 261000 M⁻¹ s⁻¹ | B1 |
| 0.88 nM | 0.000198 s⁻¹ | 226000 M⁻¹ s⁻¹ | B2 |
| 1.49 nM | 0.000206 s⁻¹ | 138000 M⁻¹ s⁻¹ | B3 |
| 0.416 nM | 0.000123 s⁻¹ | 296000 M⁻¹ s⁻¹ | B4 |
